The record followed here is US20050048590A1.

The target of this assay is Fibronectin from human plasma (human) (UniProt P02751). The assay is described as follows: cell-based or functional assay.
Fibronectin from human plasma (human), sequence (P02751 32-2477): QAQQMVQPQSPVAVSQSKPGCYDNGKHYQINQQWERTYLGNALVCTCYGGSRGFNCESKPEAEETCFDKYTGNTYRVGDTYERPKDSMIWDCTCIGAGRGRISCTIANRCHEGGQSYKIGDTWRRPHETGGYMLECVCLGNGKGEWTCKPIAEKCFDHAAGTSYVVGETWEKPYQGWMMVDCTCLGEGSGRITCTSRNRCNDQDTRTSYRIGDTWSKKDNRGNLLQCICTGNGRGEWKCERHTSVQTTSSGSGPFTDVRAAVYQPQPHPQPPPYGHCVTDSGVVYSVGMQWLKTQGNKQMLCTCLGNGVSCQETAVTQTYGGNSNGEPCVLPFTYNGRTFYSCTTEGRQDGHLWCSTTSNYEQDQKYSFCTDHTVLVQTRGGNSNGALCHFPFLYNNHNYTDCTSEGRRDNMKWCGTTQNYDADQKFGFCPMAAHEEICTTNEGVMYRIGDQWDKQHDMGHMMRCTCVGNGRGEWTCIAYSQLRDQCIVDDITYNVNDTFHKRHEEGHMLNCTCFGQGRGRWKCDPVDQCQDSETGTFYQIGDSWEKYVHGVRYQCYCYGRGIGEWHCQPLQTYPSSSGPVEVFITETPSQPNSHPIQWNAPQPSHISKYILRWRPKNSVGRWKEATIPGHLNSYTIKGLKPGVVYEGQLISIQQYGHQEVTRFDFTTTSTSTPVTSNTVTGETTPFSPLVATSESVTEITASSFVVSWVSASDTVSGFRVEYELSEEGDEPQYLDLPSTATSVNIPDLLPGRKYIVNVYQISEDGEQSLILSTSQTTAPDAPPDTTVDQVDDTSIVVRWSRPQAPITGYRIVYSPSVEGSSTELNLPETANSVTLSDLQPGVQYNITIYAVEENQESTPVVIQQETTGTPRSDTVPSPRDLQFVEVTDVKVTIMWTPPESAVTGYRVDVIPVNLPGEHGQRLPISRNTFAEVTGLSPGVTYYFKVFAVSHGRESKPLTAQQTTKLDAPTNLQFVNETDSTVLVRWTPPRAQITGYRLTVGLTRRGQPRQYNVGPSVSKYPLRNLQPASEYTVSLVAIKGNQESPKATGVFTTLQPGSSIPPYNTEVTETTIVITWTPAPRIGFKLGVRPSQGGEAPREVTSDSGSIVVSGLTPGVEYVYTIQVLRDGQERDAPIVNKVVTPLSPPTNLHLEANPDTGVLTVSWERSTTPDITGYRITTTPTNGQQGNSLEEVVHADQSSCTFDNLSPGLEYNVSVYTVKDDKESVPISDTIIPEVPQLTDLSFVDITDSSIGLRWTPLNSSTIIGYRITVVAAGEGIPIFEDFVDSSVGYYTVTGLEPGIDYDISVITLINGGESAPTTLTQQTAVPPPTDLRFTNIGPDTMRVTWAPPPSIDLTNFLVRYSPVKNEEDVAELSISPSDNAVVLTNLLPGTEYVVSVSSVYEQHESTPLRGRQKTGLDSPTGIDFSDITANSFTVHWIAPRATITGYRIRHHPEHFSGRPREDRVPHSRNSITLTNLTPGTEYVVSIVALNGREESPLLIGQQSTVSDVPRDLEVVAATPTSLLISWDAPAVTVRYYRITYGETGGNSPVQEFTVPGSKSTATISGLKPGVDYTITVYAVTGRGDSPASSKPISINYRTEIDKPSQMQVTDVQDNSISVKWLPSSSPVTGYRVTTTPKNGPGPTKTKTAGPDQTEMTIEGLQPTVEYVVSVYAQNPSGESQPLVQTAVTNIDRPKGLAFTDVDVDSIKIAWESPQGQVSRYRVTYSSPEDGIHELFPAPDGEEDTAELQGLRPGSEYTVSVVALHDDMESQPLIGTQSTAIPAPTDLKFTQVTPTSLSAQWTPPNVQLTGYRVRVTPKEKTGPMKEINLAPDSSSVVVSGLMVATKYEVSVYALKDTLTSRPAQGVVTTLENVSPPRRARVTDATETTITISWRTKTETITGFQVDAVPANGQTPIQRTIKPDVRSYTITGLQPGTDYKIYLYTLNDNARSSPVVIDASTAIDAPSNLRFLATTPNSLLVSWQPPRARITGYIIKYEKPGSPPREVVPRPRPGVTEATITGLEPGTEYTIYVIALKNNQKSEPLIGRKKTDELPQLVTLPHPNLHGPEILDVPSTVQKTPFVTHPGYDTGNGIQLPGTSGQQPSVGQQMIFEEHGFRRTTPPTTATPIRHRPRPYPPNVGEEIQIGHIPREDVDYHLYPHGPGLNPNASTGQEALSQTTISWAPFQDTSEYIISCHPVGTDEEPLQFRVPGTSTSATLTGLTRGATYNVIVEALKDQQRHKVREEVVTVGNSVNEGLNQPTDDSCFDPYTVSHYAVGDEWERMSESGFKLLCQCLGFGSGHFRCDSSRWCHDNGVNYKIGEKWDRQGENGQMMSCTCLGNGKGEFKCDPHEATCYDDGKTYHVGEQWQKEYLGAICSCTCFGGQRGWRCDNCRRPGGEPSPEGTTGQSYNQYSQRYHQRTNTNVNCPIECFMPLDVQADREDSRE

yeast enolase (Sigma), sequence (P00924 2-437): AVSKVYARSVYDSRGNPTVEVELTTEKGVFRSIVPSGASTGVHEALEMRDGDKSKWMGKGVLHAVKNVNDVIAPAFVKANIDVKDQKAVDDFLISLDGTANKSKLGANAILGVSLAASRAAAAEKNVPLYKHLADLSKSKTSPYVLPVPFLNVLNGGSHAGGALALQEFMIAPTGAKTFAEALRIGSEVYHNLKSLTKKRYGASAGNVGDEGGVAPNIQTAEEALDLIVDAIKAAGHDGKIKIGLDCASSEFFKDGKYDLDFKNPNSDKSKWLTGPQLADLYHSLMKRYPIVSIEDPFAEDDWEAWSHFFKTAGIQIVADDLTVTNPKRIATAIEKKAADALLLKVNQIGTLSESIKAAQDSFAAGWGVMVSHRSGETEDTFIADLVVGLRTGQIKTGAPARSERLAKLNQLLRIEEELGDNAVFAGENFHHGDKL

“yeast enolase (Sigma) (from UniProt P00924 2-437)” had an inhibition of pneumococcal adherence to fibronectin coated wells of 98%.
